Measurements: US20240123029A1

Biological target: SARS-CoV-2 S protein trimer, His Tag (in house, EXPI293F cells) (SARS-CoV-2) (UniProt P0DTC2)

Sequence of Recombinant human mannose binding lectin (MBL) (P11226 21-248 limits assumed): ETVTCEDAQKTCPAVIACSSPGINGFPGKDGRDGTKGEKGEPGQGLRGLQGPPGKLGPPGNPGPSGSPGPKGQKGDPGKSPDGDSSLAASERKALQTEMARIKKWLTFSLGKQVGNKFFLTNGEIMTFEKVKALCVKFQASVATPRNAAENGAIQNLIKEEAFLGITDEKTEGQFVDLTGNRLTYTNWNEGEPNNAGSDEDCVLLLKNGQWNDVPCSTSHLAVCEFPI

Substance: Recombinant human mannose binding lectin (MBL) (from UniProt P11226 21-248)
- Kd: 0.034 µM
- koff: 0.00073 s⁻¹
- kon: 21000 M⁻¹ s⁻¹
